Laboratory results: article PMC9482650, “Quantitative fragmentomics allow affinity mapping of interactomes” (Nature Communications, 2022)

B1: SLC26A3, P40879 (peptide)
chain: VYEVPVETKF
B2: EGLN1, Q9GZT9 (peptide)
chain: PSDSVGKDVF
B3: CLDN10, P78369 (peptide)
chain: SKQFDKNAYV

Legend:
Assay in all cases: holdup assay
Design in all cases: key: below the threshold = too weak to quantify, mostly under pKd 3.1 to 4
Details in all cases: plain residues with an end cap or a label only (N-terminal biotin on a linker: ado-ado)
IL16_3, Q14005 = target: IL16_3, Q14005
MPP2, Q14168 = target: T1, MPP2, Q14168
T1 sequence (Q14168 180-250, limits assumed, looked up): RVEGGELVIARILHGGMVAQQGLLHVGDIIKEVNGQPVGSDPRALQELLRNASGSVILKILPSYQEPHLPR

PTPN3, P26045 = target: PTPN3, P26045
DLG3_3, Q92796 = target: T2, DLG3_3, Q92796
T2 sequence (Q92796 374-475, limits assumed, looked up): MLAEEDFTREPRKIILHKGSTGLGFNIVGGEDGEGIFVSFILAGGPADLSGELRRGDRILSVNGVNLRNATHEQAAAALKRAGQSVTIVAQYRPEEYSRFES

DFNB31_3, Q9P202 = target: T3, DFNB31_3, Q9P202
T3 sequence (Q9P202 811-907, limits assumed, looked up): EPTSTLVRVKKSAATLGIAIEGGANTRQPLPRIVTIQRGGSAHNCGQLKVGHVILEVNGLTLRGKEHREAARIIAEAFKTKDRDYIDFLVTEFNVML

GRIP2_5, Q9C0E4 = target: GRIP2_5, Q9C0E4
FRMPD3, Q5JV73 = target: FRMPD3, Q5JV73
LNX2_2, Q8N448 = target: T4, LNX2_2, Q8N448
T4 sequence (Q8N448 334-432, limits assumed, looked up): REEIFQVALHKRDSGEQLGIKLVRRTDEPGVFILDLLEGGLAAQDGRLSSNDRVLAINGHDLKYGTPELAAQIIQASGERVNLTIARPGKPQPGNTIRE

DLG4_1, P78352 = target: DLG4_1, P78352
MAGI3_2, Q5TCQ9 = target: MAGI3_2, Q5TCQ9
LIMK2, P53671 = target: LIMK2, P53671
MPDZ_12, O75970 = target: T5, MPDZ_12, O75970
T5 sequence (O75970 1857-1958, limits assumed, looked up): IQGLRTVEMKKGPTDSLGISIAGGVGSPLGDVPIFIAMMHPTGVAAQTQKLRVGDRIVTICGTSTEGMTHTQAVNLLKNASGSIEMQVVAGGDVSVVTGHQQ

GRIP2_6, Q9C0E4 = target: GRIP2_6, Q9C0E4
MAGI2_4, Q86UL8 = target: MAGI2_4, Q86UL8
CASK, O14936 = target: CASK, O14936
LDB3, O75112 = target: LDB3, O75112
DFNB31_1, Q9P202 = target: T6, DFNB31_1, Q9P202
T6 sequence (Q9P202 135-233, limits assumed, looked up): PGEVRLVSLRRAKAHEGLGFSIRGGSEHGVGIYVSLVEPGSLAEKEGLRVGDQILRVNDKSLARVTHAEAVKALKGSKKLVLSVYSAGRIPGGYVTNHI

Inadl_1, Q8NI35 = target: Inadl_1, Q8NI35
MAGI2_6, Q86UL8 = target: MAGI2_6, Q86UL8
TJP1_3, Q07157 = target: TJP1_3, Q07157
APBA3_1, O96018 = target: T7, APBA3_1, O96018
T7 sequence (O96018 389-490, limits assumed, looked up): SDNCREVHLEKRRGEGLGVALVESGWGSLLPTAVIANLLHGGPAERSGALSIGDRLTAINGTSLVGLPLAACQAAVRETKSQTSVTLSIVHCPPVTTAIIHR

Inadl_8, Q8NI35 = target: Inadl_8, Q8NI35
GRIP2_3, Q9C0E4 = target: GRIP2_3, Q9C0E4
SCRIB_3, Q14160 = target: SCRIB_3, Q14160
GRIP2_4, Q9C0E4 = target: GRIP2_4, Q9C0E4
PDZD7_3, Q9H5P4 = target: T8, PDZD7_3, Q9H5P4
T8 sequence (Q9H5P4 857-944, limits assumed, looked up): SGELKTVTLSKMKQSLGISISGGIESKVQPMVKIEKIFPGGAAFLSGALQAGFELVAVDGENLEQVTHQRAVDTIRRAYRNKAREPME

SHANK1, Q9Y566 = target: T9, SHANK1, Q9Y566
T9 sequence (Q9Y566 658-767, limits assumed, looked up): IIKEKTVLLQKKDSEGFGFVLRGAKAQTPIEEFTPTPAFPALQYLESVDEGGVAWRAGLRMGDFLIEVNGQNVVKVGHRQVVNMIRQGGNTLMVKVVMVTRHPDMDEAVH

DLG4_2, P78352 = target: DLG4_2, P78352
MPP6, Q9NZW5 = target: T10, MPP6, Q9NZW5
T10 sequence (Q9NZW5 125-219, limits assumed, looked up): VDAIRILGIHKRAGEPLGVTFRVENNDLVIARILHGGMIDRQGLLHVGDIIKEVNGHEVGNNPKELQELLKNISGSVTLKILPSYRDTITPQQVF

MAGI2_6, Q86UL8, sequence (Q86UL8 1141-1229): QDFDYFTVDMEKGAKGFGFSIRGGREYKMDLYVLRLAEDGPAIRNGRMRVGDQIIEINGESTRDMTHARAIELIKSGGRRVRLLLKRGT
GRIP2_5, Q9C0E4, sequence (Q9C0E4 544-642): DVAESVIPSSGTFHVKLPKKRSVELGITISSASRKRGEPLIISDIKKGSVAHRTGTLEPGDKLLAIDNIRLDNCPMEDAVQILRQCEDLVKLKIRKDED
MAGI3_2, Q5TCQ9, sequence (Q5TCQ9 398-503): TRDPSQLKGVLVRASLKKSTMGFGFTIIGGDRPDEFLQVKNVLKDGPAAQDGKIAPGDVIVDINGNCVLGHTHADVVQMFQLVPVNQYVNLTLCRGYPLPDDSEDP
LIMK2, P53671, sequence (P53671 143-248): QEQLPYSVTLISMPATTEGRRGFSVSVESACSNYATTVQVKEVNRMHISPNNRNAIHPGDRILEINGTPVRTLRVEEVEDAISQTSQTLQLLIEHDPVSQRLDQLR
TJP1_3, Q07157, sequence (Q07157 416-512): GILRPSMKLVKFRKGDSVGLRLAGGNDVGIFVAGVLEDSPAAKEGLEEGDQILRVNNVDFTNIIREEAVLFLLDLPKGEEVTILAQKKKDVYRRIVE
FRMPD3, Q5JV73, sequence (Q5JV73 12-100): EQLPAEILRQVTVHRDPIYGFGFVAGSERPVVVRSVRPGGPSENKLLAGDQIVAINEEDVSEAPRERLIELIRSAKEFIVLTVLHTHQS
IL16_3, Q14005, sequence (Q14005 1107-1207): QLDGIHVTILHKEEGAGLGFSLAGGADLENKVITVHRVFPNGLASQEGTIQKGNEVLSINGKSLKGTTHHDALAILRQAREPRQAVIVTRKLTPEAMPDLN
Inadl_1, Q8NI35, sequence (Q8NI35 113-229): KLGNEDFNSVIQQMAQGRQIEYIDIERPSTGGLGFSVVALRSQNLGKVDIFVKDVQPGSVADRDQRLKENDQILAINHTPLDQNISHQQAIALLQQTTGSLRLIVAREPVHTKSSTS
SCRIB_3, Q14160, sequence (Q14160 999-1103): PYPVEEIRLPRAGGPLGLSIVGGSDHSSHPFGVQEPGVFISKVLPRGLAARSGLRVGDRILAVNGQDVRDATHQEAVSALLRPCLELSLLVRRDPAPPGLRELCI
GRIP2_4, Q9C0E4, sequence (Q9C0E4 446-548): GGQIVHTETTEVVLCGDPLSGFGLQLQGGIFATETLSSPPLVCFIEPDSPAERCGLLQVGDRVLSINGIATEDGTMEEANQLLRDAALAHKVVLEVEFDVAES
CASK, O14936, sequence (O14936 487-570): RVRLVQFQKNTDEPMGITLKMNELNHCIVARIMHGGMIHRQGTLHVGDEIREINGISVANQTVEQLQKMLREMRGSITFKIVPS
DLG4_1, P78352, sequence (P78352 62-152): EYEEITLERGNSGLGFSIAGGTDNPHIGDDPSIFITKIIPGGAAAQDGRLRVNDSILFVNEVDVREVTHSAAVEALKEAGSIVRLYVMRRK
PTPN3, P26045, sequence (P26045 505-587): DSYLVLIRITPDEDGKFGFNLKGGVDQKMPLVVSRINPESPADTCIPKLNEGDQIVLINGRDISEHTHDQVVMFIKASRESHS
MAGI2_4, Q86UL8, sequence (Q86UL8 772-865): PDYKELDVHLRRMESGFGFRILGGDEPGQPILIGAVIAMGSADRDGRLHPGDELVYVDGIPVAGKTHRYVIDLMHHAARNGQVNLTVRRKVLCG
LDB3, O75112, sequence (O75112 1-94): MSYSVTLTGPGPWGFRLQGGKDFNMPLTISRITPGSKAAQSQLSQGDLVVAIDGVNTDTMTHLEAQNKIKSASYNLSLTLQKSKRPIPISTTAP
GRIP2_3, Q9C0E4, sequence (Q9C0E4 238-339): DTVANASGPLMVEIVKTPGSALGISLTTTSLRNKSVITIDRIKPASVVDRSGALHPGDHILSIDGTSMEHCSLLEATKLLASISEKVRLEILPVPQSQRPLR
Inadl_8, Q8NI35, sequence (Q8NI35 1425-1530): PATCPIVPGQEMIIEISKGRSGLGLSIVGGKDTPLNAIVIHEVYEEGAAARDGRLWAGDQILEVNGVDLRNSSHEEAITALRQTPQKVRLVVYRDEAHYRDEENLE
DLG4_2, P78352, sequence (P78352 155-259): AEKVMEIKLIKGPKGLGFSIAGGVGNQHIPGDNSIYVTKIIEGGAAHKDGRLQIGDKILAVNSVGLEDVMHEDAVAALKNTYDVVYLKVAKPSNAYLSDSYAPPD
GRIP2_6, Q9C0E4, sequence (Q9C0E4 648-740): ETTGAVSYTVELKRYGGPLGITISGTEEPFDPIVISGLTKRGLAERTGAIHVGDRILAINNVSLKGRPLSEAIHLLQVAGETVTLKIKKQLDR

| Binder | pKd (IL16_3, Q14005) | pKd (MPP2, Q14168) | pKd (PTPN3, P26045) | pKd (DLG3_3, Q92796) | pKd (DFNB31_3, Q9P202) | pKd (GRIP2_5, Q9C0E4) | pKd (FRMPD3, Q5JV73) | pKd (LNX2_2, Q8N448) | pKd (DLG4_1, P78352) | pKd (MAGI3_2, Q5TCQ9) | pKd (LIMK2, P53671) | pKd (MPDZ_12, O75970) | pKd (GRIP2_6, Q9C0E4) | pKd (MAGI2_4, Q86UL8) | pKd (CASK, O14936) | pKd (LDB3, O75112) | pKd (DFNB31_1, Q9P202) | pKd (Inadl_1, Q8NI35) | pKd (MAGI2_6, Q86UL8) | pKd (TJP1_3, Q07157) | further results |
| --- | --- | --- | --- | --- | --- | --- | --- | --- | --- | --- | --- | --- | --- | --- | --- | --- | --- | --- | --- | --- | --- |
| B1 | below the threshold | below the threshold | 4.84 | below the threshold | 3.94 | below the threshold | below the threshold | below the threshold | below the threshold | below the threshold | below the threshold | below the threshold | below the threshold | below the threshold | below the threshold | 3.55 | 4.21 | below the threshold | 4 | below the threshold | pKd (APBA3_1, O96018): below the threshold; pKd (Inadl_8, Q8NI35): below the threshold; pKd (GRIP2_3, Q9C0E4): below the threshold; pKd (SCRIB_3, Q14160): 4.44; pKd (GRIP2_4, Q9C0E4): below the threshold; pKd (PDZD7_3, Q9H5P4): below the threshold; pKd (SHANK1, Q9Y566): 4.63; pKd (DLG4_2, P78352): 3.66; pKd (MPP6, Q9NZW5): below the threshold |
| B2 | below the threshold | below the threshold | below the threshold | below the threshold | below the threshold | below the threshold | below the threshold | below the threshold | below the threshold | below the threshold | below the threshold | below the threshold | below the threshold | below the threshold | below the threshold | below the threshold | 3.49 | below the threshold | below the threshold | below the threshold | pKd (APBA3_1, O96018): below the threshold; pKd (Inadl_8, Q8NI35): below the threshold; pKd (GRIP2_3, Q9C0E4): below the threshold; pKd (SCRIB_3, Q14160): below the threshold; pKd (GRIP2_4, Q9C0E4): below the threshold; pKd (PDZD7_3, Q9H5P4): below the threshold; pKd (SHANK1, Q9Y566): below the threshold; pKd (DLG4_2, P78352): below the threshold; pKd (MPP6, Q9NZW5): below the threshold |
| B3 | below the threshold | below the threshold | below the threshold | below the threshold | below the threshold | below the threshold | below the threshold | 4.1 | below the threshold | 3.67 | below the threshold | below the threshold | below the threshold | below the threshold | below the threshold | below the threshold | below the threshold | below the threshold | below the threshold | below the threshold | pKd (APBA3_1, O96018): below the threshold; pKd (Inadl_8, Q8NI35): 3.5; pKd (GRIP2_3, Q9C0E4): below the threshold; pKd (SCRIB_3, Q14160): below the threshold; pKd (GRIP2_4, Q9C0E4): below the threshold; pKd (PDZD7_3, Q9H5P4): below the threshold; pKd (SHANK1, Q9Y566): below the threshold; pKd (DLG4_2, P78352): 3.52; pKd (MPP6, Q9NZW5): below the threshold |
